In this assay the target is T1, human antithrombin β complexed with heparin (ATβH) (human, UniProt P01008 33-464, lacks glycosylation at Asn135 (β glyco-isoform); complexed with heparin; biotinylated on surface lysines for panning and ELISA).
T1 construct: mature; heparin is not a protein; also called human ATβH; hATβH
Put plainly: panning and screening of a human antibody library against human ATβ in complex with heparin.

T1 sequence (P01008 33-464, one chain of several): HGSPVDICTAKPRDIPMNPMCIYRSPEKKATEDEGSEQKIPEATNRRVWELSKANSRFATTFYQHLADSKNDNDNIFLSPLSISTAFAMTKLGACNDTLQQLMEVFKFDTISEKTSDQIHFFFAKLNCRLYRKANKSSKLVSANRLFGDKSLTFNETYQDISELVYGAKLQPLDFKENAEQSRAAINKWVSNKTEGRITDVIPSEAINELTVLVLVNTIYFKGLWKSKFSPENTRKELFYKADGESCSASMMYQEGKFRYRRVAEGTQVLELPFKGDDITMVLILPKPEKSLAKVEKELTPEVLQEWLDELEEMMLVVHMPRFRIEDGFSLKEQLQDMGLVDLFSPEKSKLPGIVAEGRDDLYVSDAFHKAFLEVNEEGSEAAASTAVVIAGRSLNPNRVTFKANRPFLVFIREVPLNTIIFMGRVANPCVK
Excerpt: A four-arm panning strategy was designed to discover Fabs specifically against ATβH from a human Fab library (Dyax Fab310). The library was first depleted with biotinylated heparin/Fondaparinux-bound ATα and biotinylated ATα and then was panned against heparin/Fondaparinux-bound ATβ and biotinylated ATβ on streptavidin beads, respectively. For each round of panning, the heparin-bound ATα (ATαH) was included in the binding buffer as a competitor. To keep hATβ in active conformation (heparin bound form), heparin was added to the wash buffer in all three rounds of panning. After panning, pooled clones were screened for hATβ and hATβH specific binding and counter-screened for hATα by ELISA. These clones were also examined for differential binding to rabbit ATβ over rabbit ATα. […] Positive hits (Fabs) were reformatted into IgG1, expressed in HEK293 cells and purified by protein-A column. These purified IgG1s were extensively tested in AT-depleted human plasma and hemA patient plasma for TGA assay (Thrombin Generation Assay) and dPT (diluted Prothrombin Time) assay to measure the clotting time.

B1: TPP2009 hIgG1 (antibody, V domains shown)
VH: EVQLLESGGGLVQPGGSLRLSCAASGFTFSAYRMGWVRQAPGKGLEWVSRIYSSGGRTRYADSVKGRFTISRDNSKNTLYLQMNSLRAEDTAVYYCAREKASDLSGSFSEALDYWGQGTLVTVSS
VL: AQSVLTQDPAVSVALGQTVRITCQGDSLRSYYASWYQQKPGQAPVLVIYGKNNRPSGIPDRFSGSSSGNTASLTITGAQAEDEADYYCNSRDSSGNHLVFGGGTKLTVLG
For the molecule B1, the binding result is reported as “binds”.

The values above are taken from patent US20140271660A1 (Bayer, published 2014).
